Measurements reported in article PMC9482650, “Quantitative fragmentomics allow affinity mapping of interactomes” (Nature Communications, 2022).

B1: UNC93A, Q86WB7 (peptide)
chain: AEDEEIQTKM
B2: NECTIN3, Q9NQS3 (peptide)
chain: SVISRREWYV
B3: ADAM17, P78536 (peptide)
chain: NRVDSKETEC
B4: YAP1, P46937 (peptide)
chain: LDKESFLTWL
B5: SCN4A, P35499 (peptide)
chain: VRPGVKESLV
B6: PKN2, Q16513 (peptide)
chain: RDFDYIADWC

What follows are binders tested against T1, MPP2, Q14168 (assay: holdup assay). Conditions: plain residues with an end cap or a label only (N-terminal biotin on a linker: ado-ado).
T1 sequence (Q14168 180-250, limits assumed, looked up): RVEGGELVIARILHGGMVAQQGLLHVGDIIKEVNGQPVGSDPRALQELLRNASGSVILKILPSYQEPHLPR
Parameters: key: below the threshold = too weak to quantify, mostly under pKd 3.1 to 4

Binder	pKd
B1	below the threshold
B2	4.57
B3	below the threshold
B4	below the threshold
B5	below the threshold
B6	3.49

What follows are binders tested against T2, NHERF3_4, Q5T2W1 (assay: holdup assay). Conditions: plain residues with an end cap or a label only (N-terminal biotin on a linker: ado-ado).
T2 sequence (Q5T2W1 373-468, limits assumed, looked up): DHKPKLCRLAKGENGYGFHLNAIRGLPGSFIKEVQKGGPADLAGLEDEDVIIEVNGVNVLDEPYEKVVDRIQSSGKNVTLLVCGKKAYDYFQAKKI
Parameters: key: below the threshold = too weak to quantify, mostly under pKd 3.1 to 4

Binder	pKd
B1	4.52
B2	below the threshold
B3	3.49
B4	4.18
B5	below the threshold
B6	below the threshold

The binders below were run against DLG1_1, Q12959 (assay: holdup assay). Conditions: plain residues with an end cap or a label only (N-terminal biotin on a linker: ado-ado).
Parameters: key: below the threshold = too weak to quantify, mostly under pKd 3.1 to 4

Binder	pKd
B1	below the threshold
B2	below the threshold
B3	4.32
B4	4.01
B5	4.71
B6	below the threshold

These binders were tested against T3, DLG3_3, Q92796 (assay: holdup assay). Conditions: plain residues with an end cap or a label only (N-terminal biotin on a linker: ado-ado).
T3 sequence (Q92796 374-475, limits assumed, looked up): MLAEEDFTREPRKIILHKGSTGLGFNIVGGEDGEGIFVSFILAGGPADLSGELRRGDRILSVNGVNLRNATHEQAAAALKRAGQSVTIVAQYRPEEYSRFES
Parameters: key: below the threshold = too weak to quantify, mostly under pKd 3.1 to 4

Binder	pKd
B1	below the threshold
B2	3.71
B3	3.95
B4	below the threshold
B5	4.1
B6	below the threshold

Each binder was assayed against T4, PDZD2_2, O15018 (assay: holdup assay). Conditions: plain residues with an end cap or a label only (N-terminal biotin on a linker: ado-ado).
T4 sequence (O15018 329-429, limits assumed, looked up): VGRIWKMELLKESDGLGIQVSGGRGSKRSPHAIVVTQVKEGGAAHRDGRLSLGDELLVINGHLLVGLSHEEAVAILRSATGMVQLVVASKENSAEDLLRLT
Parameters: key: below the threshold = too weak to quantify, mostly under pKd 3.1 to 4

Binder	pKd
B1	below the threshold
B2	5.08
B3	below the threshold
B4	5.88
B5	5.17
B6	5.54

The binders below were run against T5, DFNB31_3, Q9P202 (assay: holdup assay). Conditions: plain residues with an end cap or a label only (N-terminal biotin on a linker: ado-ado).
T5 sequence (Q9P202 811-907, limits assumed, looked up): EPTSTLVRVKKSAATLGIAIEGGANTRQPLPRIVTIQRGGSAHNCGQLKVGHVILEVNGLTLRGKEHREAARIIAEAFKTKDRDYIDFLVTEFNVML
Parameters: key: below the threshold = too weak to quantify, mostly under pKd 3.1 to 4

Binder	pKd
B1	3.88
B2	3.52
B3	3.92
B4	5.37
B5	below the threshold
B6	below the threshold

These binders were tested against SCRIB_1, Q14160 (assay: holdup assay). Conditions: plain residues with an end cap or a label only (N-terminal biotin on a linker: ado-ado).
SCRIB_1, Q14160, sequence (Q14160 718-814): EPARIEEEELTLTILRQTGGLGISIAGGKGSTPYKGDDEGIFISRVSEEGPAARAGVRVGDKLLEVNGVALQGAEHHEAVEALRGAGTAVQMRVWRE
Parameters: key: below the threshold = too weak to quantify, mostly under pKd 3.1 to 4

Binder	pKd
B1	below the threshold
B2	below the threshold
B3	4.49
B4	4.47
B5	4.48
B6	below the threshold

What follows are binders tested against T6, RAPGEF6, Q8TEU7 (assay: holdup assay). Conditions: plain residues with an end cap or a label only (N-terminal biotin on a linker: ado-ado).
T6 sequence (Q8TEU7 525-625, limits assumed, looked up): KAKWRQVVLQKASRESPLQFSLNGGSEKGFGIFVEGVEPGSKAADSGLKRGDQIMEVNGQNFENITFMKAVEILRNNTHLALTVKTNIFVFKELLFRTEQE
Parameters: key: below the threshold = too weak to quantify, mostly under pKd 3.1 to 4

Binder	pKd
B1	below the threshold
B2	below the threshold
B3	below the threshold
B4	below the threshold
B5	below the threshold
B6	below the threshold

What follows are binders tested against TJP2_1, Q9UDY2 (assay: holdup assay). Conditions: plain residues with an end cap or a label only (N-terminal biotin on a linker: ado-ado).
TJP2_1, Q9UDY2, sequence (Q9UDY2 24-128): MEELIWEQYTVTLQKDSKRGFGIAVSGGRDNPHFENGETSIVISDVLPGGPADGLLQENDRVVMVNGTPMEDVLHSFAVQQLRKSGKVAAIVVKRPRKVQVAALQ
Parameters: key: below the threshold = too weak to quantify, mostly under pKd 3.1 to 4

Binder	pKd
B1	below the threshold
B2	4.63
B3	below the threshold
B4	5.19
B5	below the threshold
B6	4.48

What follows are binders tested against MAST2, Q6P0Q8 (assay: holdup assay). Conditions: plain residues with an end cap or a label only (N-terminal biotin on a linker: ado-ado).
MAST2, Q6P0Q8, sequence (Q6P0Q8 1099-1202): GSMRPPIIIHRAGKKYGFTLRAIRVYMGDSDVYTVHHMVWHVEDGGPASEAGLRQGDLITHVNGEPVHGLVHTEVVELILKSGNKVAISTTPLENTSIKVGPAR
Parameters: key: below the threshold = too weak to quantify, mostly under pKd 3.1 to 4

Binder	pKd
B1	5.38
B2	4.61
B3	4.86
B4	5.6
B5	4.87
B6	3.64

The binders below were run against GRIP2_5, Q9C0E4 (assay: holdup assay). Conditions: plain residues with an end cap or a label only (N-terminal biotin on a linker: ado-ado).
GRIP2_5, Q9C0E4, sequence (Q9C0E4 544-642): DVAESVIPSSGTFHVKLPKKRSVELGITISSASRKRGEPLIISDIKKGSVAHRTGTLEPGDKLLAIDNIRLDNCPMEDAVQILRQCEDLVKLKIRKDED
Parameters: key: below the threshold = too weak to quantify, mostly under pKd 3.1 to 4

Binder	pKd
B1	below the threshold
B2	below the threshold
B3	below the threshold
B4	below the threshold
B5	below the threshold
B6	below the threshold

These binders were tested against T7, GRIP1_5, Q9Y3R0 (assay: holdup assay). Conditions: plain residues with an end cap or a label only (N-terminal biotin on a linker: ado-ado).
T7 sequence (Q9Y3R0 568-668, limits assumed, looked up): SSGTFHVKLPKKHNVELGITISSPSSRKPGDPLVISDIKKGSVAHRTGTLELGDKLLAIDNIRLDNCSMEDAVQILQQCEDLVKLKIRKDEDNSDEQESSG
Parameters: key: below the threshold = too weak to quantify, mostly under pKd 3.1 to 4

Binder	pKd
B1	below the threshold
B2	below the threshold
B3	below the threshold
B4	below the threshold
B5	below the threshold
B6	below the threshold

The binders below were run against T8, GRIP1_4, Q9Y3R0 (assay: holdup assay). Conditions: plain residues with an end cap or a label only (N-terminal biotin on a linker: ado-ado).
T8 sequence (Q9Y3R0 467-571, limits assumed, looked up): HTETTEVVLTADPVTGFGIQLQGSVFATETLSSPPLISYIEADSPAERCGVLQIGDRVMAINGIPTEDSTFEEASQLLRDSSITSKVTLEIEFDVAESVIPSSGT
Parameters: key: below the threshold = too weak to quantify, mostly under pKd 3.1 to 4

Binder	pKd
B1	below the threshold
B2	below the threshold
B3	below the threshold
B4	below the threshold
B5	below the threshold
B6	below the threshold

What follows are binders tested against T9, DFNB31_2, Q9P202 (assay: holdup assay). Conditions: plain residues with an end cap or a label only (N-terminal biotin on a linker: ado-ado).
T9 sequence (Q9P202 274-371, limits assumed, looked up): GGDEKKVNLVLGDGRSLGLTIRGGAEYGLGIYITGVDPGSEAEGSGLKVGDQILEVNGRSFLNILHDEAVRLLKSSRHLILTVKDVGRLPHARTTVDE
Parameters: key: below the threshold = too weak to quantify, mostly under pKd 3.1 to 4

Binder	pKd
B1	below the threshold
B2	below the threshold
B3	below the threshold
B4	below the threshold
B5	3.95
B6	below the threshold

What follows are binders tested against T10, LRRC7, Q96NW7 (assay: holdup assay). Conditions: plain residues with an end cap or a label only (N-terminal biotin on a linker: ado-ado).
T10 sequence (Q96NW7 1440-1537, limits assumed, looked up): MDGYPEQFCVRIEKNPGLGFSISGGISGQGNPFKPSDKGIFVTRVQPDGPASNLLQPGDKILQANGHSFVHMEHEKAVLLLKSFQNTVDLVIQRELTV
Parameters: key: below the threshold = too weak to quantify, mostly under pKd 3.1 to 4

Binder	pKd
B1	below the threshold
B2	3.52
B3	below the threshold
B4	4.17
B5	4.02
B6	below the threshold

What follows are binders tested against T11, PARD3B_1, Q8TEW8 (assay: holdup assay). Conditions: plain residues with an end cap or a label only (N-terminal biotin on a linker: ado-ado).
T11 sequence (Q8TEW8 196-299, limits assumed, looked up): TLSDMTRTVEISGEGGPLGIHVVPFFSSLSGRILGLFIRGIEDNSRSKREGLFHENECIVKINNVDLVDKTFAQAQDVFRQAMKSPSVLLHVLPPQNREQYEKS
Parameters: key: below the threshold = too weak to quantify, mostly under pKd 3.1 to 4

Binder	pKd
B1	below the threshold
B2	4.79
B3	below the threshold
B4	4.44
B5	below the threshold
B6	3.54

What follows are binders tested against Inadl_2, Q8NI35 (assay: holdup assay). Conditions: plain residues with an end cap or a label only (N-terminal biotin on a linker: ado-ado).
Inadl_2, Q8NI35, sequence (Q8NI35 238-335): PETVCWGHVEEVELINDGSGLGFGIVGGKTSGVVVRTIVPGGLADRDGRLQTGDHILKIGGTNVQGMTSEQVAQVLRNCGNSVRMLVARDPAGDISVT
Parameters: key: below the threshold = too weak to quantify, mostly under pKd 3.1 to 4

Binder	pKd
B1	below the threshold
B2	4.91
B3	below the threshold
B4	3.91
B5	below the threshold
B6	below the threshold

What follows are binders tested against T12, MPDZ_12, O75970 (assay: holdup assay). Conditions: plain residues with an end cap or a label only (N-terminal biotin on a linker: ado-ado).
T12 sequence (O75970 1857-1958, limits assumed, looked up): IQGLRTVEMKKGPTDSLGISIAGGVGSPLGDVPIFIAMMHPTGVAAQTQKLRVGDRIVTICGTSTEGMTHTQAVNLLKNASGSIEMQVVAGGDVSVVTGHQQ
Parameters: key: below the threshold = too weak to quantify, mostly under pKd 3.1 to 4

Binder	pKd
B1	below the threshold
B2	below the threshold
B3	below the threshold
B4	4.98
B5	below the threshold
B6	4.2

The binders below were run against T13, LIN7B, Q9HAP6 (assay: holdup assay). Conditions: plain residues with an end cap or a label only (N-terminal biotin on a linker: ado-ado).
T13 sequence (Q9HAP6 88-185, limits assumed, looked up): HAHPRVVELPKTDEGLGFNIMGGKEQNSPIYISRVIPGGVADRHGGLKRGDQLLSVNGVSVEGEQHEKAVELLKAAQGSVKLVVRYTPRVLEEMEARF
Parameters: key: below the threshold = too weak to quantify, mostly under pKd 3.1 to 4

Binder	pKd
B1	below the threshold
B2	below the threshold
B3	4.05
B4	3.48
B5	4.04
B6	3.9

The binders below were run against NHERF2_2, Q15599 (assay: holdup assay). Conditions: plain residues with an end cap or a label only (N-terminal biotin on a linker: ado-ado).
NHERF2_2, Q15599, sequence (Q15599 142-238): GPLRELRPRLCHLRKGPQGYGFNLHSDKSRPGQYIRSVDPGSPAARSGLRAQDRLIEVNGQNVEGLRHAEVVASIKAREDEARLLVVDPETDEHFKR
Parameters: key: below the threshold = too weak to quantify, mostly under pKd 3.1 to 4

Binder	pKd
B1	4.81
B2	below the threshold
B3	below the threshold
B4	5.19
B5	below the threshold
B6	below the threshold

These binders were tested against LNX1_3, Q8TBB1 (assay: holdup assay). Conditions: plain residues with an end cap or a label only (N-terminal biotin on a linker: ado-ado).
LNX1_3, Q8TBB1, sequence (Q8TBB1 500-596): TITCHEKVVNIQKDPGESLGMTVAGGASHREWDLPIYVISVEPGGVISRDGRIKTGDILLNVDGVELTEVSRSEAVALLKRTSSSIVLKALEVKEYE
Parameters: key: below the threshold = too weak to quantify, mostly under pKd 3.1 to 4

Binder	pKd
B1	below the threshold
B2	4.81
B3	below the threshold
B4	below the threshold
B5	below the threshold
B6	below the threshold

The binders below were run against SCRIB_3, Q14160 (assay: holdup assay). Conditions: plain residues with an end cap or a label only (N-terminal biotin on a linker: ado-ado).
SCRIB_3, Q14160, sequence (Q14160 999-1103): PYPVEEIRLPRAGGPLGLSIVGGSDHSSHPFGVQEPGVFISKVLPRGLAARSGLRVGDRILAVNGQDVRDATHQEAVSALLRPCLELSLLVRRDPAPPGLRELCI
Parameters: key: below the threshold = too weak to quantify, mostly under pKd 3.1 to 4

Binder	pKd
B1	below the threshold
B2	3.72
B3	4.58
B4	5.02
B5	4.34
B6	3.49

The binders below were run against PDZRN4_1, Q6ZMN7 (assay: holdup assay). Conditions: plain residues with an end cap or a label only (N-terminal biotin on a linker: ado-ado).
PDZRN4_1, Q6ZMN7, sequence (Q6ZMN7 213-318): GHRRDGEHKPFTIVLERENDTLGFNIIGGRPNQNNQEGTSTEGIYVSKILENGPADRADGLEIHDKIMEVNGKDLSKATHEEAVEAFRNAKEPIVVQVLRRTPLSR
Parameters: key: below the threshold = too weak to quantify, mostly under pKd 3.1 to 4

Binder	pKd
B1	below the threshold
B2	below the threshold
B3	below the threshold
B4	4.1
B5	4.25
B6	below the threshold

The binders below were run against SNX27, Q96L92 (assay: holdup assay). Conditions: plain residues with an end cap or a label only (N-terminal biotin on a linker: ado-ado).
Parameters: key: below the threshold = too weak to quantify, mostly under pKd 3.1 to 4

Binder	pKd
B1	4.5
B2	below the threshold
B3	5.06
B4	5.11
B5	5.28
B6	4.32
